Experimental findings from PMC8003784, “Two Key Amino Acids Variant of α-L-arabinofuranosidase from Bacillus subtilis Str. 168 with Altered Activity for Selective Conversion Ginsenoside Rc to Rd” (Molecules, 2021) are described below.

Changes are numbered by the printed parent chain. Names may count otherwise.

The labels stand for the following.
B1: BsAbfA (Bacillus subtilis subsp. subtilis str. 168) (protein)
chain: MKKARMIVDKEYKIGEVDKRIYGSFIEHMGRAVYEGIYEPDHPEADEDGFRKDVQSLIKELQVPIIRYPGGNFLSGYNWEDGVGPVENRPRRLDLAWQTTETNEVGTNEFLSWAKKVNTEVNMAVNLGTRGIDAARNLVEYCNHPKGSYWSDLRRSHGYEQPYGIKTWCLGNEMDGPWQIGHKTADEYGRLAAETAKVMKWVDPSIELVACGSSNSGMPTFIDWEAKVLEHTYEHVDYISLHTYYGNRDNNLPNYLARSMDLDHFIKSVAATCDYVKAKTRSKKTINLSLDEWNVWYHSNEADKKVEPWITARPILEDIYNFEDALLVGSLLITMLQHADRVKIACLAQLVNVIAPIMTEKGGEAWRQPIFYPYMHASVYGRGESLKPLISSPKYDCSDFTDVPYVDAAVVYSEEEETLTIFAVNKAEDQMETEISLRGFESYQIAEHIVLEHQDIKATNQHNRKNVVPHSNGSSSVSENGLTAHFTPLSWNVIRLKKQS
notes: full ORF, codon-optimised, N-terminal His-tag (pET-28a), E. coli BL21(DE3), Ni-NTA purified, approx. 60 kDa; GH51
B2: BsAbfA (Bacillus subtilis subsp. subtilis str. 168; E173D) (protein)
chain: B1 chain with E173D
notes: as for B1
B3: BsAbfA (Bacillus subtilis subsp. subtilis str. 168; E173Q) (protein)
chain: B1 chain with E173Q
notes: as for B1
B4: BsAbfA (Bacillus subtilis subsp. subtilis str. 168; E292Q) (protein)
chain: B1 chain with E292Q
notes: as for B1
B5: BsAbfA (Bacillus subtilis subsp. subtilis str. 168; E292D) (protein)
chain: B1 chain with E292D
notes: as for B1

Substrate in the data set: O=[N+]([O-])c1ccc(O[C@@H]2O[C@@H](CO)[C@H](O)[C@H]2O)cc1
Briefly: purified protein. The data set is classed as biochemical, Bacillus subtilis. The following applies: pH 5, 40 °C, 50 mM citric acid/sodium citrate.
As to B1, the Km came out at 600 ± 80 µM, the catalytic constant (kcat) worked out at 109 ± 8.6 s⁻¹ and the specificity constant (kcat/Km) was 182000 ± 6900 M⁻¹ s⁻¹.

For the protein B2, the Michaelis constant (Km) came to 200 ± 50 µM, the turnover number (kcat) amounted to 0.5 s⁻¹ and the kcat/Km was 2500 ± 60 M⁻¹ s⁻¹.

With B3, the Km came to 400 ± 70 µM, the kcat is 2.5 ± 2.1 s⁻¹ and the catalytic efficiency (kcat/Km) worked out at 6300 ± 90 M⁻¹ s⁻¹.

With B4, the Km was 700 ± 90 µM, the kcat came out at 1.6 ± 0.04 s⁻¹ and the kcat/Km came to 2300 ± 50 M⁻¹ s⁻¹.

As for B5, the Km came out at 700 ± 60 µM, the turnover number (kcat) amounted to 0.9 ± 0.05 s⁻¹ and the kcat/Km worked out at 1300 ± 30 M⁻¹ s⁻¹.

Broadly, the Km is the concentration of substrate that gives half-maximal velocity. By kcat is commonly meant the number of substrate molecules converted per active site and unit of time at saturation. What is called kcat/Km is the turnover number divided by the Michaelis constant.
